# Experimental data reported in publication doi:10.1101/2025.09.11.675134, “Biodistribution-Driven Discovery Identifies a Glycosidase-Cleavable Linker to Reprogram Radiotheranostics” (bioRxiv, 2025).
# Like-named read-outs stand apart in the source and are kept apart here.
# Assays:
# [1] = Ex vivo biodistribution of 225Ac-labeled variants in AR42J tumor-bearing mice; details: athymic nu/nu, mouse, total radioactivity, 225Ac-labeled; for tissue uptake at 24 h / tissue uptake at 96 h: AR42J tumor-bearing mice; for tissue uptake at 96 h: 4 days post-injection
# Description: Prior to conducting targeted alpha-particle therapy studies using three ^225Ac-labeled variants (Fig. S17) in AR42J xenograft-bearing mice, we first assessed their in vivo pharmacokinetics through ex vivo biodistribution studies at 24 h post-injection (Fig. 5A; Tables S4). […]
# For studies involving three variants (DOTA -TATE, DOTA-MVK(ε)-TATE, and DOTA-β-Gal-TATE), AR42J cells (5 × 10^6 cells per mouse) were subcutaneously inoculated into the right shoulder of the mice. Tumors were allowed to grow for 3 weeks, reaching a volume of 100 –200 mm³ before being used in subsequent experiments. […]
# All samples […]
# were weighed and counted on a gamma counter (2480 Wizard 3, Perkin Elmer Inc., Waltham, MA, USA). Results are presented as percentage of injected activity per gram (%IA/g) and mean values ± standard deviations. […]
# Prior to conducting alpha particle therapy, biodistribution studies with 225Ac-labeled DOTA - TATE variants (117 – 163 kBq, 1 μg) were performed at 24 hours and 4 days post -injection in athymic nu/nu mice bearing AR42J tumors (n = 4 – 5). Mice were euthanized by CO 2 asphyxiation, and 10 tissues, including tumors, were collected. All samples were weighed and counted on a gamma counter after equilibration for 12 hours. Results are presented as %IA/g and mean values ± standard deviations.
# [2] = Histopathology (H&E) after two-cycle therapy; format: in vivo, athymic nu/nu mice; details: kidney H&E after two-cycle regimen, n = 6
# Description: To further assess tissue-level toxicity at the conclusion of the two-cycle therapy study, kidneys, livers, spleens, and tumors from representative mice were collected and evaluated histologically using hematoxylin and eosin (H&E) staining. Microscopic pathology was assessed and recorded in the MHL Pathology Database (Zaphod) according to a standardized five-point grading scale (normal, minimal, mild, moderate, marked). Terminology and criteria for pathological findings were consistent with the INHAND (International Harmonization of Nomenclature and Diagnostic Criteria) guidelines developed by the Society of Toxicologic Pathology.
# At the conclusion of the two-cycle therapy study, kidneys, livers, spleens, and tumors from representative mice were collected and processed for histological evaluation using hematoxylin and eosin (H&E) staining. Microscopic pathology was assessed and recorded in the MHL Pathology Database (Zaphod) using a standardized five-point ordinal grading system (normal, minimal, mild, moderate, marked). Terminology and diagnostic criteria were consistent with the International Harmonization of Nomenclature and Diagnostic Criteria (INHAND) guidelines established by the Society of Toxicologic Pathology (https://www.toxpath.org/inhand.asp)([57]).
# [3] = tested on: AR42J xenografts; assay: Dosimetry estimates of 225Ac-labeled variants from biodistribution data; format: in vivo, athymic nu/nu mice
# Source text: To evaluate the organ-level radiation absorbed dose resulting from different DOTA-TATE derivatives, we calculated the total effective dose per unit of injected activity (Eff Dose/IA, mSv/MBq) for ^225Ac-labeled variants based on biodistribution data in AR42J xenograft-bearing mice (Tables S5).
# Estimated absorbed doses for individual organs for ^225Ac- and ^86Y-labeled DOTA-TATE variants were derived from residence times calculated using %IA/g data from biodistribution studies. The time–activity curves incorporated data from both radionuclides to provide complete coverage of early and late time points. Details of the dosimetry methodology, including time–activity curve construction, integration approach, decay assumptions, and conversion to effective dose, are provided in the Supplementary Information.
# Dosimetry: The dosimetry was calculated by measuring the residence time per gram for each organ using the percent injected activity per gram (%IA/g) data collected for the biodistribution study. Because two biodistribution data sample groups were collected, one for the 86Y and the other for the 225Ac variant of the three DOTA-TATE variants (DOTA-TATE, DOTA-MVK(ε)- TATE, and DOTA-β-Gal-TATE) the %IA/g time activity curves (TAC) of the 86Y variant were merged with the 225Ac TACs. This was possible because of the difference in half lives between 86Y and 225Ac being 14.74 and 237.8 hours respectively setting the measurement time points to be 1, 4 and 24 hours for the 86Y ligands and 24, 96 hours for 225Ac. The full time activity curve is thus made up of the 1 and 4 hour time points of the 86Y %IA/g data points, an average of the common 24 hour time point of the 86Y and 225Ac %IA/g data points and the last 96 hour %IA/g time point of the 225Ac samples. The full 4 time points of 1, 4, 24, and 96 hours making up the […]
# from which the residence times were calculated.
# The integration of the TAC was performed using trapezoidal interpolation between time points.
# The first time point assumed constant activity and a decay curve with the half life of the radioisotope was used to estimate activity beyond 96 hours. The average %IA/g was used for each tissue sample for each time point and the resulting standard deviation of the average was then used as the error estimate per time point to propagate through the residence time calculation.
# Using the residence time for each TAC, the dose was calculated by looking up the dose per decay for each alpha, beta (positron and electron from nuclear beta decay) and electron emission listed in the nuclear data sheets provided by the Brookhaven National Laboratory National Nuclear Data Center. Since the 225Ac decays via a complicated decay chain, it is assumed that the dose from the daughters remains in the tissue assuming no biological dissemination once the 225Ac decays breaking the bonds of the DOTA-TATE ligand. The following mean dose per decay were used. For 225Ac, 27.58MeV/Bq-s for alpha emissions, 1.33MeV/Bq-s for beta plus electron emissions. For 86Y, 0.219 MeV/Bq-s for beta and electron emissions. Gamma emissions were ignored because of the small size of the tissue samples have small gamma absorption effects which would contribute negligibly to the dose calculation. Furthermore, dosimetry estimate […]
# inter organ activity can be calculated(62).
# To estimate the effective dose in mSv/MBq, a radiological factor of 5 was used to multiply the dose calculated from the alpha ionizations while a factor of 1 was used for the beta and electron ionizations to convert from mGy/MBq to mSv/MBq (63, 64).
# [4] = 225Ac-labeled, AR42J xenografts, from biodistribution time-activity curves, alpha factor 5, mean, n = 4–5
# [5] = 225Ac-labeled, dosimetry estimate
# [6] = absorbed-dose estimate at 148 kBq per mouse
structure (smiles),measurement,setting,value
"C[C@@H](O)[C@H](NC(=O)[C@@H]1CSSC[C@H](NC(=O)[C@@H](Cc2ccccc2)NC(=O)CCCC(=O)Nc2cc(COC(=O)N(C)CCNC(=O)CN3CCN(CC(=O)O)CCN(CC(=O)O)CCN(CC(=O)O)CC3)ccc2O[C@@H]2O[C@H](CO)[C@H](O)[C@H](O)[C@H]2O)C(=O)N[C@@H](Cc2ccc(O)cc2)C(=O)N[C@H](Cc2c[nH]c3ccccc23)C(=O)N[C@@H](CCCCN)C(=O)N[C@@H]([C@@H](C)O)C(=O)N1)C(=O)O [^225Ac-DOTA-β-Gal-TATE, metal not drawn]",tissue uptake at 24 h,"[1]; iv, 1 ug, 24 h post-injection, ex vivo, mean (± SD), n = 4–5, read-out: Kidney uptake",0.89 ± 0.08 %ID/g
same,tissue uptake at 24 h,"[1]; iv, 1 ug, 24 h post-injection, ex vivo, mean (± SD), n = 4–5, read-out: Liver uptake",0.89 ± 0.49 %ID/g
same,tissue uptake at 24 h,"[1]; iv, 1 ug, 24 h post-injection, ex vivo, mean (± SD), n = 4–5, read-out: Tumor uptake",8.22 ± 1.84 %ID/g
same,tissue uptake at 24 h,"[1]; iv, 1 ug, 24 h post-injection, ex vivo, mean, n = 4–5, read-out: Femur uptake",0.48 %ID/g
same,tissue uptake at 24 h,"[1]; iv, 1 ug, 24 h post-injection, ex vivo, mean, n = 4–5, read-out: Intestine uptake",0.17 %ID/g
same,tissue uptake at 24 h,"[1]; iv, 1 ug, 24 h post-injection, ex vivo, mean, n = 4–5, read-out: Spleen uptake",0.47 %ID/g
same,tissue uptake at 24 h,"[1]; iv, 1 ug, 24 h post-injection, i.v. 1 μg (117–163 kBq), ex vivo gamma counting, mean, n = 4–5, read-out: Blood uptake",0.04 %ID/g
same,tissue uptake at 96 h,"[1]; iv, 1 ug, ex vivo, mean, n = 4–5, read-out: Blood uptake",0.03 %ID/g
same,tissue uptake at 96 h,"[1]; iv, 1 ug, ex vivo, mean, n = 4–5, read-out: Femur uptake",0.42 %ID/g
same,tissue uptake at 96 h,"[1]; iv, 1 ug, ex vivo, mean, n = 4–5, read-out: Intestine uptake",0.09 %ID/g
same,tissue uptake at 96 h,"[1]; iv, 1 ug, ex vivo, mean, n = 4–5, read-out: Kidney uptake",0.28 %ID/g
same,tissue uptake at 96 h,"[1]; iv, 1 ug, ex vivo, mean, n = 4–5, read-out: Liver uptake",0.5 %ID/g
same,tissue uptake at 96 h,"[1]; iv, 1 ug, ex vivo, mean, n = 4–5, read-out: Muscle uptake",0.22 %ID/g
same,tissue uptake at 96 h,"[1]; iv, 1 ug, ex vivo, mean, n = 4–5, read-out: Spleen uptake",0.22 %ID/g
same,tissue uptake at 24 h,"[1]; 24 h post-injection, ex vivo, mean, n = 4–5, read-out: Heart uptake",0.1 %ID/g
same,tissue uptake at 24 h,"[1]; 24 h post-injection, ex vivo, mean, n = 4–5, read-out: Lung uptake",0.1 %ID/g
same,tissue uptake at 24 h,"[1]; 24 h post-injection, ex vivo, mean, n = 4–5, read-out: Muscle uptake",0.1 %ID/g
same,tissue uptake at 96 h,"[1]; ex vivo, mean (± SD), n = 4–5, read-out: Tumor uptake",2.74 %ID/g
same,tissue uptake at 96 h,"[1]; ex vivo, mean, n = 4–5, read-out: Heart uptake",0.13 %ID/g
same,tissue uptake at 96 h,"[1]; ex vivo, mean, n = 4–5, read-out: Lung uptake",0.11 %ID/g
same,tissue to tissue ratio at 24 h,"[1]; AR42J xenografts, 24 h post-injection, ex vivo, mean ± SD, n = 4, read-out: Tumor-to-kidney (T/K) ratio",9.12 ± 1.31
same,"Tubular damage, percentage of mice with grade 0","[2]; 0–4+ scale (normal, minimal, mild, moderate, marked)",100%
same,"Glomerulopathy, percentage of mice with grade 0",[2]; 0–4+ scale,67%
same,"Total effective dose per injected activity, Femur",[3]; [4],7.96E+04 mSv/MBq
same,"Total effective dose per injected activity, Heart",[3]; [4],1.20E+04 mSv/MBq
same,"Total effective dose per injected activity, Intestine",[3]; [4],2.87E+04 mSv/MBq
same,"Total effective dose per injected activity, Kidney",[3]; [4],1.56 × 10^5 mSv/MBq
same,"Total effective dose per injected activity, Liver",[3]; [4],1.34E+05 mSv/MBq
same,"Total effective dose per injected activity, Lung",[3]; [4],1.91E+04 mSv/MBq
same,"Total effective dose per injected activity, Muscle",[3]; [4],1.02E+04 mSv/MBq
same,"Total effective dose per injected activity, Spleen",[3]; [4],3.37E+04 mSv/MBq
same,"Total effective dose per injected activity, Tumor",[3]; [4],1.06 × 10^6 mSv/MBq
same,"Total effective dose per injected activity, Blood","[3]; 225Ac-labeled, AR42J xenografts, from merged 86Y/225Ac time-activity curves (1, 4, 24, 96 h), alpha factor 5, mean, n = 4–5",3.93E+03 mSv/MBq
same,Tumor dose higher than that of 225Ac-DOTA-MVK(ε)-TATE,[3]; [5],1.59 fold
same,Tumor dose higher than that of 225Ac-DOTA-TATE,[3]; [5],2.46 fold
same,Absorbed dose to kidney,[3]; [6],4.8 Gy
same,Absorbed dose to tumor,[3]; [6],32.5 Gy
same,Reduction of kidney dose versus 225Ac-DOTA-MVK(ε)-TATE,[3]; [6],~15%
